Experimental data published in patent publication US20250043302A1, “MUTATED HYDROXYPHENYLPYRUVATE DIOXYGENASE POLYPEPTIDE, AND CODING GENE AND USE THEREOF” (BEIJING DABEINONG BIOTECHNOLOGY CO., LTD., priority 2021, published 2025).

Experiments:
Format in all cases: in vivo
[1] = system: Arabidopsis thaliana T1 plants; experiment: Topramezone tolerance of transgenic Arabidopsis thaliana T1 plants (spray, bleached leaf area grade, damage score); details: for Resistance evaluation / Scores / Grade 0 (classification and statistics of the grade of pesticide damage; number of plants) / Grade 1 (classification and statistics of the grade of pesticide damage; number of plants) / Grade 2 (classification and statistics of the grade of pesticide damage; number of plants) / Grade 3 (classification and statistics of the grade of pesticide damage; number of plants): Arabidopsis thaliana T1 plants; for Grade 0 (classification and statistics of the grade of pesticide damage; number of plants) / Grade 1 (classification and statistics of the grade of pesticide damage; number of plants) / Grade 2 (classification and statistics of the grade of pesticide damage; number of plants) / Grade 3 (classification and statistics of the grade of pesticide damage; number of plants): 16 plants; for tolerance to topramezone (resistance class): topramezone at four-fold or eight-fold field concentration
Procedure, shortened: (§1)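 Damage was assessed by bleaching grade (0 none; 1 <50%; 2 >50%; 3 100% of leaf area) one week after spraying. Sprays on 18-day-old T1 and wild-type plants used field-rate multiples: topramezone 25–200, isoxaflutole 35–280, mesotrione 52.5–420 g ai/ha.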

[2] = system: Arabidopsis thaliana T1 plants; experiment: Isoxaflutole tolerance of transgenic Arabidopsis thaliana T1 plants (spray, bleached leaf area grade, damage score); details: Arabidopsis thaliana T1 plants; for Grade 0 (classification and statistics of the grade of pesticide damage; number of plants) / Grade 1 (classification and statistics of the grade of pesticide damage; number of plants) / Grade 2 (classification and statistics of the grade of pesticide damage; number of plants) / Grade 3 (classification and statistics of the grade of pesticide damage; number of plants): 16 plants;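 on Scores: Weighted damage index from 0 to 100 where higher means more damage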
Procedure, shortened: as §1

[3] = system: Arabidopsis thaliana T1 plants; experiment: Mesotrione tolerance of transgenic Arabidopsis thaliana T1 plants (spray, bleached leaf area grade, damage score); design: Scores: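 damage score 0-100 computed as Σ(N×S)/(T×M)×100 over grades 0-3 with higher meaning more damage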; details: Table 9; for Classification and statistics of the grade of pesticide damage Grade 0: number of plants at grade 0; for Classification and statistics of the grade of pesticide damage Grade 1: number of plants at grade 1; for Classification and statistics of the grade of pesticide damage Grade 2: number of plants at grade 2; for Classification and statistics of the grade of pesticide damage Grade 3: number of plants at grade 3; for Scores: pesticide damage score
Procedure, shortened: as §1

[4] = topramezone 100 g ai/ha (4x field concentration)
[5] = topramezone 200 g ai/ha (8x field concentration)
[6] = isoxaflutole 140 g ai/ha (2x field concentration)
[7] = isoxaflutole 280 g ai/ha (4x field concentration)

B1: AsHPPDm-F372G-02: nucleotide sequence encoding Avena sativa HPPD with F372G; vector DBN11774 (nucleic acid)
DNA: ATGCCACCTACTCCAGCTACAGCTACTGGTGCTGCTGCTGCTGCCGTTACTCCTGAGCACGCTGCCAGGTCATTCCCCAGGGTGGTTCGCGTGAACCCCAGATCTGATAGGTTCCCAGTTCTGAGCTTCCACCATGTTGAGCTGTGGTGCGCTGATGCTGCTTCTGCTGCTGGCAGGTTCTCTTTCGCTCTTGGTGCTCCACTCGCTGCTAGATCTGATCTGTCTACAGGAAATAGCGCTCATGCCTCACTCCTGCTTCGCTCAGGTGCTTTGGCCTTCCTCTTCACCGCTCCATATGCTCCCCCACCTCAGGAGGCTGCTACTGCTGCTGCTACAGCCTCCATTCCAAGCTTCTCAGCTGATGCCGCTAGAACCTTCGCTGCTGCTCATGGACTTGCCGTGAGGTCTGTTGGTGTTCGCGTGGCTGATGCTGCTGAGGCTTTCAGAGTTTCCGTTGCCGGCGGAGCTAGGCCAGCTTTCGCTCCTGCTGATTTGGGACATGGTTTCGGCCTGGCTGAGGTTGAGCTTTACGGTGACGTGGTTCTCCGCTTCGTGTCTTACCCAGATGAGACTGACCTGCCTTTCCTTCCCGGCTTCGAGAGAGTTTCCTCTCCTGGTGCCGTGGATTACGGCCTGACAAGGTTCGACCACGTGGTTGGAAACGTTCCCGAGATGGCTCCAGTGATCGATTACATGAAGGGCTTCCTTGGATTCCATGAGTTCGCCGAGTTCACTGCTGAGGACGTGGGAACCACTGAGTCCGGTTTGAACTCTGTGGTTCTCGCCAACAATTCTGAGGCTGTTTTGCTCCCTCTGAATGAGCCTGTGCATGGAACCAAGAGGAGAAGCCAGATTCAAACTTACCTGGAGTACCACGGTGGCCCTGGAGTTCAGCATATCGCCCTTGCTTCTAATGATGTGTTGCGCACACTCAGAGAGATGCGCGCCAGAACCCCCATGGGAGGTTTCGAGTTCATGGCCCCACCACAGGCTAAGTACTACGAGGGCGTTAGAAGGATTGCTGGAGACGTGTTGAGCGAGGAGCAGATCAAGGAGTGCCAAGAGCTGGGTGTTCTTGTGGATAGGGATGACCAGGGCGTTCTGCTTCAAATTGGTACTAAGCCAGTGGGCGACCGCCCTACATTCTTCCTTGAGATGATTCAAAGAATCGGCTGCATGGAGAAGGATGAGGTTGGACAGGAGTACCAAAAGGGCGGATGCGGTGGCTTCGGAAAGGGTAACTTCAGCGAGTTGTTCAAGTCAATCGAGGACTACGAGAAGAGCCTCGAGGTGAAGCAGTCAGTGGTTGCCCAAAAGTCCTGA
modifications: AsHPPDm-F372G-02 Nucleotide Sequence
notes: vector DBN11774
Resistance evaluation [1, 4]: Highly resistant | Scores [1, 4]: 0 | Grade 0 (classification and statistics of the grade of pesticide damage; number of plants) [1, 4]: 16 | Grade 1 (classification and statistics of the grade of pesticide damage; number of plants) [1, 4]: 0 | Grade 2 (classification and statistics of the grade of pesticide damage; number of plants) [1, 4]: 0 | Grade 3 (classification and statistics of the grade of pesticide damage; number of plants) [1, 4]: 0 | Resistance evaluation [1, 5]: Highly resistant | Scores [1, 5]: 0 | Grade 0 (classification and statistics of the grade of pesticide damage; number of plants) [1, 5]: 16 | Grade 1 (classification and statistics of the grade of pesticide damage; number of plants) [1, 5]: 0 | Grade 2 (classification and statistics of the grade of pesticide damage; number of plants) [1, 5]: 0 | Grade 3 (classification and statistics of the grade of pesticide damage; number of plants) [1, 5]: 0 | tolerance to topramezone (resistance class) [1]: highly-resistant | Resistance evaluation [2, 6]: Moderately | Scores [2, 6]: 29 | Grade 0 (classification and statistics of the grade of pesticide damage; number of plants) [2, 6]: 6 | Grade 1 (classification and statistics of the grade of pesticide damage; number of plants) [2, 6]: 7 | Grade 2 (classification and statistics of the grade of pesticide damage; number of plants) [2, 6]: 2 | Grade 3 (classification and statistics of the grade of pesticide damage; number of plants) [2, 6]: 1 | Resistance evaluation [2, 7]: Poorly resistant | Scores [2, 7]: 67 | Grade 0 (classification and statistics of the grade of pesticide damage; number of plants) [2, 7]: 0 | Grade 1 (classification and statistics of the grade of pesticide damage; number of plants) [2, 7]: 0 | Grade 2 (classification and statistics of the grade of pesticide damage; number of plants) [2, 7]: 16 | Grade 3 (classification and statistics of the grade of pesticide damage; number of plants) [2, 7]: 0 | Resistance evaluation ([3]; mesotrione 210 g ai/ha (2×)): Moderately | Classification and statistics of the grade of pesticide damage Grade 0 ([3]; mesotrione 210 g ai/ha (2×)): 5 | Classification and statistics of the grade of pesticide damage Grade 1 ([3]; mesotrione 210 g ai/ha (2×)): 8 | Classification and statistics of the grade of pesticide damage Grade 2 ([3]; mesotrione 210 g ai/ha (2×)): 2 | Classification and statistics of the grade of pesticide damage Grade 3 ([3]; mesotrione 210 g ai/ha (2×)): 1 | Scores ([3]; mesotrione 210 g ai/ha (2×)): 31 | Resistance evaluation ([3]; mesotrione 420 g ai/ha (4×)): Poorly resistant | Classification and statistics of the grade of pesticide damage Grade 0 ([3]; mesotrione 420 g ai/ha (4×)): 0 | Classification and statistics of the grade of pesticide damage Grade 1 ([3]; mesotrione 420 g ai/ha (4×)): 8 | Classification and statistics of the grade of pesticide damage Grade 2 ([3]; mesotrione 420 g ai/ha (4×)): 8 | Classification and statistics of the grade of pesticide damage Grade 3 ([3]; mesotrione 420 g ai/ha (4×)): 0 | Scores ([3]; mesotrione 420 g ai/ha (4×)): 50

B2: AsHPPDm-F372G-F383W-02: nucleotide sequence encoding Avena sativa HPPD with F372G+F383W; vector DBN11775 (nucleic acid)
DNA: ATGCCACCTACTCCAGCTACAGCTACTGGTGCTGCTGCTGCTGCCGTTACTCCTGAGCACGCTGCCAGGTCATTCCCCAGGGTGGTTCGCGTGAACCCCAGATCTGATAGGTTCCCAGTTCTGAGCTTCCACCATGTTGAGCTGTGGTGCGCTGATGCTGCTTCTGCTGCTGGCAGGTTCTCTTTCGCTCTTGGTGCTCCACTCGCTGCTAGATCTGATCTGTCTACAGGAAATAGCGCTCATGCCTCACTCCTGCTTCGCTCAGGTGCTTTGGCCTTCCTCTTCACCGCTCCATATGCTCCCCCACCTCAGGAGGCTGCTACTGCTGCTGCTACAGCCTCCATTCCAAGCTTCTCAGCTGATGCCGCTAGAACCTTCGCTGCTGCTCATGGACTTGCCGTGAGGTCTGTTGGTGTTCGCGTGGCTGATGCTGCTGAGGCTTTCAGAGTTTCCGTTGCCGGCGGAGCTAGGCCAGCTTTCGCTCCTGCTGATTTGGGACATGGTTTCGGCCTGGCTGAGGTTGAGCTTTACGGTGACGTGGTTCTCCGCTTCGTGTCTTACCCAGATGAGACTGACCTGCCTTTCCTTCCCGGCTTCGAGAGAGTTTCCTCTCCTGGTGCCGTGGATTACGGCCTGACAAGGTTCGACCACGTGGTTGGAAACGTTCCCGAGATGGCTCCAGTGATCGATTACATGAAGGGCTTCCTTGGATTCCATGAGTTCGCCGAGTTCACTGCTGAGGACGTGGGAACCACTGAGTCCGGTTTGAACTCTGTGGTTCTCGCCAACAATTCTGAGGCTGTTTTGCTCCCTCTGAATGAGCCTGTGCATGGAACCAAGAGGAGAAGCCAGATTCAAACTTACCTGGAGTACCACGGTGGCCCTGGAGTTCAGCATATCGCCCTTGCTTCTAATGATGTGTTGCGCACACTCAGAGAGATGCGCGCCAGAACCCCCATGGGAGGTTTCGAGTTCATGGCCCCACCACAGGCTAAGTACTACGAGGGCGTTAGAAGGATTGCTGGAGACGTGTTGAGCGAGGAGCAGATCAAGGAGTGCCAAGAGCTGGGTGTTCTTGTGGATAGGGATGACCAGGGCGTTCTGCTTCAAATTGGTACTAAGCCAGTGGGCGACCGCCCTACATTCTGGCTTGAGATGATTCAAAGAATCGGCTGCATGGAGAAGGATGAGGTTGGACAGGAGTACCAAAAGGGCGGATGCGGTGGCTTCGGAAAGGGTAACTTCAGCGAGTTGTTCAAGTCAATCGAGGACTACGAGAAGAGCCTCGAGGTGAAGCAGTCAGTGGTTGCCCAAAAGTCCTGA
modifications: AsHPPDm-F372G-F383W-02 Nucleotide Sequence
notes: vector DBN11775
Resistance evaluation [1, 4]: Highly resistant | Scores [1, 4]: 0 | Grade 0 (classification and statistics of the grade of pesticide damage; number of plants) [1, 4]: 16 | Grade 1 (classification and statistics of the grade of pesticide damage; number of plants) [1, 4]: 0 | Grade 2 (classification and statistics of the grade of pesticide damage; number of plants) [1, 4]: 0 | Grade 3 (classification and statistics of the grade of pesticide damage; number of plants) [1, 4]: 0 | Resistance evaluation [1, 5]: Highly resistant | Scores [1, 5]: 0 | Grade 0 (classification and statistics of the grade of pesticide damage; number of plants) [1, 5]: 16 | Grade 1 (classification and statistics of the grade of pesticide damage; number of plants) [1, 5]: 0 | Grade 2 (classification and statistics of the grade of pesticide damage; number of plants) [1, 5]: 0 | Grade 3 (classification and statistics of the grade of pesticide damage; number of plants) [1, 5]: 0 | tolerance to topramezone (resistance class) [1]: highly-resistant | Resistance evaluation [2, 6]: Highly resistant | Scores [2, 6]: 0 | Grade 0 (classification and statistics of the grade of pesticide damage; number of plants) [2, 6]: 16 | Grade 1 (classification and statistics of the grade of pesticide damage; number of plants) [2, 6]: 0 | Grade 2 (classification and statistics of the grade of pesticide damage; number of plants) [2, 6]: 0 | Grade 3 (classification and statistics of the grade of pesticide damage; number of plants) [2, 6]: 0 | Resistance evaluation [2, 7]: Highly resistant | Scores [2, 7]: 8 | Grade 0 (classification and statistics of the grade of pesticide damage; number of plants) [2, 7]: 12 | Grade 1 (classification and statistics of the grade of pesticide damage; number of plants) [2, 7]: 4 | Grade 2 (classification and statistics of the grade of pesticide damage; number of plants) [2, 7]: 0 | Grade 3 (classification and statistics of the grade of pesticide damage; number of plants) [2, 7]: 0 | Resistance evaluation ([3]; mesotrione 210 g ai/ha (2×)): Highly resistant | Classification and statistics of the grade of pesticide damage Grade 0 ([3]; mesotrione 210 g ai/ha (2×)): 16 | Classification and statistics of the grade of pesticide damage Grade 1 ([3]; mesotrione 210 g ai/ha (2×)): 0 | Classification and statistics of the grade of pesticide damage Grade 2 ([3]; mesotrione 210 g ai/ha (2×)): 0 | Classification and statistics of the grade of pesticide damage Grade 3 ([3]; mesotrione 210 g ai/ha (2×)): 0 | Scores ([3]; mesotrione 210 g ai/ha (2×)): 0 | Resistance evaluation ([3]; mesotrione 420 g ai/ha (4×)): Highly resistant | Classification and statistics of the grade of pesticide damage Grade 0 ([3]; mesotrione 420 g ai/ha (4×)): 13 | Classification and statistics of the grade of pesticide damage Grade 1 ([3]; mesotrione 420 g ai/ha (4×)): 3 | Classification and statistics of the grade of pesticide damage Grade 2 ([3]; mesotrione 420 g ai/ha (4×)): 0 | Classification and statistics of the grade of pesticide damage Grade 3 ([3]; mesotrione 420 g ai/ha (4×)): 0 | Scores ([3]; mesotrione 420 g ai/ha (4×)): 6
